± gives the standard deviation of the averaged measurements.
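Further: PSI is a weighted mean of sequencing reads over stability bins, variants kept only with over 10 reads, mCherry proximal and sfGFP distal, peptide attached via GGGS linker.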

The subject of this data set is Saccharomyces cerevisiae. In words: protein stability index of tFT-peptide fusion (C-terminal peptide) (PSI (0-1 scale)); higher = more stable (slower turnover). Conditions: genetic background: wild type; temperature: 30 C.
For SPRVSRRVLPSF, the protein stability index is 0.6696 ± 0.0027.

For SPRYLLFSLRSP, the protein stability index came out at 0.714 ± 0.11.

SPSFPPHRPPQH: the protein stability index is 0.724 ± 0.066.

SPSHSVSGPLSF showed a protein stability index of 0.648 ± 0.014.

As for SPSLPQLLDPPS, the protein stability index worked out at 0.711 ± 0.011.

With SPSLSFVFPVSL, the protein stability index was 0.756 ± 0.039.

For the sequence SPSPHPQPLIPL, the protein stability index was 0.681 ± 0.03.

The sequence SPSPPLPFSRPP yielded a protein stability index of 0.686 ± 0.044.

SPSPPPASPPAP had a protein stability index of 0.654 ± 0.14.

Take SPSRHPSPPKPP: the protein stability index worked out at 0.607 ± 0.021.

Consider SPSSSPLSPFPL, for which the protein stability index turned out to be 0.713 ± 0.084.

The sequence SPSTSPPPSSSS showed a protein stability index of 0.697 ± 0.042.

With SPSYACLPPPIP, the protein stability index worked out at 0.7461 ± 0.0032.

In the case of SPTPLDPLRAPL, the protein stability index amounted to 0.6902 ± 0.0027.

For SPTPPPPPPRPP, the protein stability index was found to be 0.581 ± 0.018.

SPVPLPPPLPSL had a protein stability index of 0.664 ± 0.023.

The sequence SPVPVTFSLLTR showed a protein stability index of 0.698 ± 0.0082.

Turning to SPVRLSSVPRPY, the protein stability index came out at 0.683 ± 0.019.

In turn, SPWLSSRFRVPR displayed a protein stability index of 0.686 ± 0.021.

The sequence SPWMSKNGQSSD gave a protein stability index of 0.622 ± 0.02.

For the sequence SPWWAPPSPPYP, the protein stability index was determined as 0.582 ± 0.015.

In the case of SQAFPPADLRPR, the protein stability index was found to be 0.719 ± 0.058.

As for SQLKHLPPDREC, the protein stability index was 0.679 ± 0.016.

Sequence SQMMLKQKFLRR came in with a protein stability index of 0.628 ± 0.024.

Sequence SRACTRRSHTLE gave a protein stability index of 0.681 ± 0.032.

In turn, SRAIEPSEFSVA displayed a protein stability index of 0.715 ± 0.055.

SRARPPLLPFPP had a protein stability index of 0.615 ± 0.061.

As to SRASTGPPPPGT, the protein stability index came to 0.692 ± 0.026.

As to SRCGSFRICFGT, the protein stability index was 0.638 ± 0.013.

SRFLPPSHLLPP gave a protein stability index of 0.738 ± 0.093.

Sequence SRFVRNRYGRVV gave a protein stability index of 0.648 ± 0.027.

Regarding SRGRAGESRPRG, the protein stability index was 0.712 ± 0.069.

In turn, SRGSSGHLVNLV showed a protein stability index of 0.607 ± 0.049.

SRGVLLCHCSIA displayed a protein stability index of 0.758 ± 0.12.

Sequence SRKCLPPLQLWS showed a protein stability index of 0.759 ± 0.067.

SRLLPPLPPLSP showed a protein stability index of 0.767 ± 0.097.

In the case of SRNKLNSIIIEK, the protein stability index was 0.608 ± 0.046.

SRPLPLPPRPLP: the protein stability index was found to be 0.647 ± 0.023.

Regarding SRPLPPSLPPPP, the protein stability index is 0.756 ± 0.0098.

SRPLQPLHQPKY registered a protein stability index of 0.681 ± 0.052.

SRPPAPPPLPAP: the protein stability index was 0.726 ± 0.025.

In turn, SRPPPPSIYLSI came in with a protein stability index of 0.6912 ± 0.0021.

On to SRPRSPPPPPIT, for which the protein stability index is 0.819 ± 0.054.

The sequence SRPTSGPPQPPL displayed a protein stability index of 0.707 ± 0.022.

SRPVSSFPPPLR returned a protein stability index of 0.664 ± 0.071.

Turning to SRQDLPKYVYLY, the protein stability index came out at 0.508 ± 0.016.

Sequence SRRENEVIGGAE had a protein stability index of 0.725 ± 0.068.

Sequence SRRGARRHVRLK gave a protein stability index of 0.6757 ± 0.00074.

In the case of SRRGFTHDGLKD, the protein stability index amounted to 0.645 ± 0.032.

SRRLQSPVRVVT showed a protein stability index of 0.773 ± 0.15.

SRRRSPARPSLP: the protein stability index amounted to 0.7462 ± 0.0045.

With SRRRVTSCTARG, the protein stability index was found to be 0.729 ± 0.018.

SRRSCTLLSTTW gave a protein stability index of 0.698 ± 0.022.

In the case of SRRSVVRPPCIG, the protein stability index was determined as 0.656 ± 0.056.

SRRVSLGLSVDS returned a protein stability index of 0.662 ± 0.074.

Sequence SRSETIQTGIGW had a protein stability index of 0.706 ± 0.012.

Consider SRSISCPVLSKI, for which the protein stability index was determined as 0.707 ± 0.017.

Regarding SRSKVVVHNSYW, the protein stability index was found to be 0.724 ± 0.14.

In turn, SRSSPLYRRGVR returned a protein stability index of 0.679 ± 0.089.

SRTLYERTRFVL showed a protein stability index of 0.647 ± 0.018.

SRVPTSRARKRS returned a protein stability index of 0.7001 ± 0.0042.

With SSCLDAHPPSSS, the protein stability index was 0.736 ± 0.072.

With SSCLRQGVGACG, the protein stability index came out at 0.702 ± 0.018.

Regarding SSDFTSRHTRPP, the protein stability index came to 0.639 ± 0.035.

As for SSDSYANLNWVI, the protein stability index was 0.741 ± 0.038.

SSEECYDTKGEL registered a protein stability index of 0.674 ± 0.027.

Take SSENIQLADQLR: the protein stability index was 0.702 ± 0.046.

For the sequence SSFLLGCAFPLG, the protein stability index turned out to be 0.688 ± 0.0075.

SSFLSFSSGCQS: the protein stability index was determined as 0.757 ± 0.045.

As for SSFNSCQFVLSY, the protein stability index was determined as 0.563 ± 0.011.

As for SSFSACPTKIII, the protein stability index was 0.686 ± 0.048.

As for SSGCVNILIDLF, the protein stability index is 0.638 ± 0.011.

Sequence SSGKRANINKNK gave a protein stability index of 0.695 ± 0.022.

Take SSGVCSGTSALN: the protein stability index is 0.681 ± 0.033.

As to SSHWGRSRLASG, the protein stability index was determined as 0.674 ± 0.1.

Sequence SSIVGRLLSTNT yielded a protein stability index of 0.664 ± 0.071.

SSLLLPALSPSV had a protein stability index of 0.647 ± 0.077.

On to SSLLSLAFFAPS, for which the protein stability index came out at 0.7147 ± 0.0056.

Take SSLPAPSPVPSP: the protein stability index was 0.731 ± 0.081.

With SSLPPPRLFLLP, the protein stability index is 0.697 ± 0.085.

These data come from the supplement of paper PMC10724198.
